{"source": "paper PMC4434323", "key": {"[1]": {"target": "T1, Y51H4A.4 (Y51H4A.4) (Caenorhabditis elegans) (UniProt Q9NAE4)", "T1 sequence": "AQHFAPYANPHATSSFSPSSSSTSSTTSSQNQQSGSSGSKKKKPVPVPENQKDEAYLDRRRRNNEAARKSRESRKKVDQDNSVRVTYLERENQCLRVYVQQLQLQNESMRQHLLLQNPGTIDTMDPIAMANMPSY"}, "[2]": {"tested_on": "scrt-1 (C55C2.1) (Caenorhabditis elegans)", "sequence (chain, as listed by the source)": "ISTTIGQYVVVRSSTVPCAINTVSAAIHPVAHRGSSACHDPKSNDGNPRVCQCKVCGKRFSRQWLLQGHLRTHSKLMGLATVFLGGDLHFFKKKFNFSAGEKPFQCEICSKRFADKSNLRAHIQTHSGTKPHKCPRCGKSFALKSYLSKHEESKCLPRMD"}, "[3]": {"target": "T2, K02D7.2 (K02D7.2) (Caenorhabditis elegans) (UniProt O45103)", "T2 sequence": "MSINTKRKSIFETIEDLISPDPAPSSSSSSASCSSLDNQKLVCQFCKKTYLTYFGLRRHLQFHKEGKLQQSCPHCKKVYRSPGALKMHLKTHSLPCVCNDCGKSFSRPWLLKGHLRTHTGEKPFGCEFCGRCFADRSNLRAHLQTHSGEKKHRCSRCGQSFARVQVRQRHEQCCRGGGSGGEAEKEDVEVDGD"}, "[4]": {"target": "T3, tbx-33 (Y66A7A.8) (Caenorhabditis elegans) (UniProt O45291)", "T3 sequence": "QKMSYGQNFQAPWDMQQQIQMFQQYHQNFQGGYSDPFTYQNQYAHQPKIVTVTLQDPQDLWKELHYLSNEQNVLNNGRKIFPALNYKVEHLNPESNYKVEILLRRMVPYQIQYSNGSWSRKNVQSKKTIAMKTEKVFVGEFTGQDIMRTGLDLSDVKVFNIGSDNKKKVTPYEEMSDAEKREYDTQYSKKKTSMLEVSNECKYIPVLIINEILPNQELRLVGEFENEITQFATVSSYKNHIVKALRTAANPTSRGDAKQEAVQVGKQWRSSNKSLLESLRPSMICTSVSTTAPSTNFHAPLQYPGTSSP"}, "[5]": {"target": "T4, F55C5.11 (F55C5.11) (Caenorhabditis elegans) (UniProt Q1ZXU0)", "T4 sequence": "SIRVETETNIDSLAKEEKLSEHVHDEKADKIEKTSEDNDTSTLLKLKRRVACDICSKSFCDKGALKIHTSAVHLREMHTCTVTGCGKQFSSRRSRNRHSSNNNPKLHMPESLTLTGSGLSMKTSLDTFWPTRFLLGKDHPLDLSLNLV"}, "[6]": {"target": "egl-13 (T22B7.1) (Caenorhabditis elegans) (UniProt Q23045)", "sequence (Q23045 279-447)": "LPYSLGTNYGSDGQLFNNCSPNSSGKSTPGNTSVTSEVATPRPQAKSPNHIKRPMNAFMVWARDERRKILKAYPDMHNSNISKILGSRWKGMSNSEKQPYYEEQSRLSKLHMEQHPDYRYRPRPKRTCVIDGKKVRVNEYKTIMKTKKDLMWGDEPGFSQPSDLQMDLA"}, "[7]": {"target": "T5, daf-19 (F33H1.1) (Caenorhabditis elegans) (UniProt Q09555)", "T5 sequence": "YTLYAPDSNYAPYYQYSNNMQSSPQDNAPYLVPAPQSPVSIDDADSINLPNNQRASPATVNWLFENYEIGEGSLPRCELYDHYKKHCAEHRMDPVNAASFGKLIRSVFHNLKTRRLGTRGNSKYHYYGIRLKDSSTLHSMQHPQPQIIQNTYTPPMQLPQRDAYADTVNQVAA"}, "[8]": {"target": "T6, nhr-168 (C50B6.8) (Caenorhabditis elegans) (UniProt P91983)", "T6 sequence": "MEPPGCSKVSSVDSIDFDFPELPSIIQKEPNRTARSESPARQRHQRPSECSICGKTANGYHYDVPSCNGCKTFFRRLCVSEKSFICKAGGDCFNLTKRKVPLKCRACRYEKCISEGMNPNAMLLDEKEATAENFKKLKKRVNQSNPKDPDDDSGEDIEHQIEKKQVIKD"}, "[9]": {"target": "T7, mab-23 (C32C4.5) (Caenorhabditis elegans) (UniProt G5ECK3)", "T7 sequence": "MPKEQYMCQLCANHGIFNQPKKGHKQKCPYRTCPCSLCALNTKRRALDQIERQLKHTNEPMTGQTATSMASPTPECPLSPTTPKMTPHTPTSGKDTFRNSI"}, "[10]": {"target": "T8, dmd-6 (F13G11.1) (Caenorhabditis elegans) (UniProt O62159)", "T8 sequence": "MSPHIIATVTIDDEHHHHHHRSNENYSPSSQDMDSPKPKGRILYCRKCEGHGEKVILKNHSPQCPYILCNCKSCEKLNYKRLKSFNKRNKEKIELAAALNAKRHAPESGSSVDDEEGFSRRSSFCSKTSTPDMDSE"}, "[11]": {"target": "T9, Y61A9LA.9 (Y61A9LA.9) (Caenorhabditis elegans) (UniProt Q9N312)", "T9 sequence": "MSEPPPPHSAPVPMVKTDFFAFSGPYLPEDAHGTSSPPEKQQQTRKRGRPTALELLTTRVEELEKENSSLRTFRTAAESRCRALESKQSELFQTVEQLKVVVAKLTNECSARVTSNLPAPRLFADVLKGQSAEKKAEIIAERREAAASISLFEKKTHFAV"}, "[12]": {"target": "T10, elt-7 (C18G1.2) (Caenorhabditis elegans) (UniProt O61924)", "T10 sequence": "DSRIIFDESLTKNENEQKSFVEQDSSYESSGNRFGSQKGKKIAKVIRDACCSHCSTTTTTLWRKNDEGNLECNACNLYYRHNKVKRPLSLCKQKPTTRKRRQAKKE"}, "[13]": {"target": "T11, elt-6 (F52C12.5) (Caenorhabditis elegans) (UniProt G5EGN3)", "T11 sequence": "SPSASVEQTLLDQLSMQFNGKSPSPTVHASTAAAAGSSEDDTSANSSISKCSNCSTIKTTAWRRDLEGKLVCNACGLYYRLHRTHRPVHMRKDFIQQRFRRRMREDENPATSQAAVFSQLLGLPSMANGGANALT"}}}
{"sequence": "ACGTAATA (double strand) [8-mer ACGTAATA]", "values": [{"measurement": "binding signal (PBM E-score (-0.5 to 0.5))", "setting": "[1]", "result": 0.472}]}
{"sequence": "CAACCACC (double strand) [8-mer CAACCACC]", "values": [{"measurement": "binding signal (PBM E-score (-0.5 to 0.5))", "setting": "[2]", "result": 0.483}]}
{"sequence": "ACAGGTGC (double strand) [8-mer ACAGGTGC]", "values": [{"measurement": "binding signal (PBM E-score (-0.5 to 0.5))", "setting": "[3]", "result": 0.477}]}
{"sequence": "AACCACTG (double strand) [8-mer AACCACTG]", "values": [{"measurement": "binding signal (PBM E-score (-0.5 to 0.5))", "setting": "[2]", "result": 0.475}]}
{"sequence": "ATTGTCAC (double strand) [8-mer ATTGTCAC]", "values": [{"measurement": "binding signal (PBM E-score (-0.5 to 0.5))", "setting": "[4]", "result": 0.47}, {"measurement": "binding signal (PBM E-score (-0.5 to 0.5))", "setting": "[5]", "result": 0.486}]}
{"sequence": "AGAACAAT (double strand) [8-mer AGAACAAT]", "values": [{"measurement": "binding signal (PBM E-score (-0.5 to 0.5))", "setting": "[6]", "result": 0.469}]}
{"sequence": "ATCGTCAC (double strand) [8-mer ATCGTCAC]", "values": [{"measurement": "binding signal (PBM E-score (-0.5 to 0.5))", "setting": "[4]", "result": 0.487}]}
{"sequence": "GTAGCAAC (double strand) [8-mer GTAGCAAC]", "values": [{"measurement": "binding signal (PBM E-score (-0.5 to 0.5))", "setting": "[7]", "result": 0.46}]}
{"sequence": "GTACAAAA (double strand) [8-mer GTACAAAA]", "values": [{"measurement": "binding signal (PBM E-score (-0.5 to 0.5))", "setting": "[8]", "result": 0.46}]}
{"sequence": "CTAGCAAC (double strand) [8-mer CTAGCAAC]", "values": [{"measurement": "binding signal (PBM E-score (-0.5 to 0.5))", "setting": "[7]", "result": 0.484}]}
{"sequence": "GTAACTAA (double strand) [8-mer GTAACTAA]", "values": [{"measurement": "binding signal (PBM E-score (-0.5 to 0.5))", "setting": "[7]", "result": 0.465}]}
{"sequence": "ATCTCCAC (double strand) [8-mer ATCTCCAC]", "values": [{"measurement": "binding signal (PBM E-score (-0.5 to 0.5))", "setting": "[4]", "result": 0.485}]}
{"sequence": "GGTTGCTA (double strand) [8-mer GGTTGCTA]", "values": [{"measurement": "binding signal (PBM E-score (-0.5 to 0.5))", "setting": "[7]", "result": 0.493}]}
{"sequence": "AAACAATA (double strand) [8-mer AAACAATA]", "values": [{"measurement": "binding signal (PBM E-score (-0.5 to 0.5))", "setting": "[6]", "result": 0.469}]}
{"sequence": "ACAACCAC (double strand) [8-mer ACAACCAC]", "values": [{"measurement": "binding signal (PBM E-score (-0.5 to 0.5))", "setting": "[2]", "result": 0.472}]}
{"sequence": "AAATATTA (double strand) [8-mer AAATATTA]", "values": [{"measurement": "binding signal (PBM E-score (-0.5 to 0.5))", "setting": "[9]", "result": 0.459}, {"measurement": "binding signal (PBM E-score (-0.5 to 0.5))", "setting": "[10]", "result": 0.481}, {"measurement": "binding signal (PBM E-score (-0.5 to 0.5))", "setting": "[11]", "result": 0.456}]}
{"sequence": "CCTTATCA (double strand) [8-mer CCTTATCA]", "values": [{"measurement": "binding signal (PBM E-score (-0.5 to 0.5))", "setting": "[12]", "result": 0.469}, {"measurement": "binding signal (PBM E-score (-0.5 to 0.5))", "setting": "[13]", "result": 0.496}]}
{"sequence": "ATGTTCTC (double strand) [8-mer ATGTTCTC]", "values": [{"measurement": "binding signal (PBM E-score (-0.5 to 0.5))", "setting": "[8]", "result": 0.465}]}
{"sequence": "ATAACAAT (double strand) [8-mer ATAACAAT]", "values": [{"measurement": "binding signal (PBM E-score (-0.5 to 0.5))", "setting": "[6]", "result": 0.471}]}
{"sequence": "TAGCAACA (double strand) [8-mer TAGCAACA]", "values": [{"measurement": "binding signal (PBM E-score (-0.5 to 0.5))", "setting": "[7]", "result": 0.474}]}
{"sequence": "AAACCACT (double strand) [8-mer AAACCACT]", "values": [{"measurement": "binding signal (PBM E-score (-0.5 to 0.5))", "setting": "[2]", "result": 0.453}]}
{"sequence": "AACCACTA (double strand) [8-mer AACCACTA]", "values": [{"measurement": "binding signal (PBM E-score (-0.5 to 0.5))", "setting": "[2]", "result": 0.46}]}
{"sequence": "AACAATAC (double strand) [8-mer AACAATAC]", "values": [{"measurement": "binding signal (PBM E-score (-0.5 to 0.5))", "setting": "[6]", "result": 0.453}]}
{"sequence": "AGCAGGTG (double strand) [8-mer AGCAGGTG]", "values": [{"measurement": "binding signal (PBM E-score (-0.5 to 0.5))", "setting": "[3]", "result": 0.457}]}
{"sequence": "CACCTGTA (double strand) [8-mer CACCTGTA]", "values": [{"measurement": "binding signal (PBM E-score (-0.5 to 0.5))", "setting": "[3]", "result": 0.457}]}
{"sequence": "AACAATAG (double strand) [8-mer AACAATAG]", "values": [{"measurement": "binding signal (PBM E-score (-0.5 to 0.5))", "setting": "[6]", "result": 0.485}]}
{"sequence": "ATCGCCAG (double strand) [8-mer ATCGCCAG]", "values": [{"measurement": "binding signal (PBM E-score (-0.5 to 0.5))", "setting": "[4]", "result": 0.473}]}
{"sequence": "GTTGCTAA (double strand) [8-mer GTTGCTAA]", "values": [{"measurement": "binding signal (PBM E-score (-0.5 to 0.5))", "setting": "[7]", "result": 0.487}]}
{"sequence": "TAACAATA (double strand) [8-mer TAACAATA]", "values": [{"measurement": "binding signal (PBM E-score (-0.5 to 0.5))", "setting": "[6]", "result": 0.464}]}
{"sequence": "ACAGGTGG (double strand) [8-mer ACAGGTGG]", "values": [{"measurement": "binding signal (PBM E-score (-0.5 to 0.5))", "setting": "[3]", "result": 0.467}]}
